In article PMC11316097 (Nature Communications, 2024):

Target: T1, bovine cyclin A2 residues 169-430 (bovine, UniProt P30274 169-430)
T1 construct: cyclin A2, bovine, residues 169-430 of UniProt P30274 (equivalent to human cyclin A residues 171-432, UniProt P20248)
Assay: cryo-EM structure; purified pY15pT160CDK2, cyclin A and CDC25A(C431S) mixed 1:1.5:2, 1 hr on ice, gel filtration (Superdex S200) in 40 mM HEPES, 200 mM NaCl, 1 mM DTT, pH 7.4; grids with CHAPS; 2.7 Å
Conditions: both partners purified

T1 sequence (P30274 169-430): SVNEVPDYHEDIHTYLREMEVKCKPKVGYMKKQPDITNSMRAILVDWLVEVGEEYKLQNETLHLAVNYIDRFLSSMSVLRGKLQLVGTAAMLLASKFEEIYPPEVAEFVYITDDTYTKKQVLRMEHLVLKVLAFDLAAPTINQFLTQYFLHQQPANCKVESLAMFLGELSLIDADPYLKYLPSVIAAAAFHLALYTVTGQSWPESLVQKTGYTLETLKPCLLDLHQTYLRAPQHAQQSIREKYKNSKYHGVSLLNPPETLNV

B1: human CDC25A residues 335-524 (catalytic domain and C-terminal tail), Cys431Ser (domain or fragment, UniProt P30304 335-524, looked up)
chain: RDLIGDFSKGYLFHTVAGKHQDLKYISPEIMASVLNGKFANLIKEFVIIDCRYPYEYEGGHIKGAVNLHMEEEVEDFLLKKPIVPTDGKRVIVVFHSEFSSERGPRMCRYVRERDRLGNEYPKLHYPELYVLKGGYKEFFMKCQSYCEPPSYRPMHHEDFKEDLKKFRTKSRTWAGEKSKREMYSRLKKL
notes: Form used for cryo-EM and HDX-MS; also called CDC25A(C431S); CDC25A(Cys431Ser)
B1: binds.
